Reference: paper PMC5519370

Biological target: TgSPT1 Δ158 (Toxoplasma gondii serine palmitoyltransferase 1 with an N-terminal deletion of 158 amino acids) (Toxoplasma gondii)
Test: SAXS (small-angle X-ray scattering); size exclusion chromatography HPLC mode, Beamline B21 Diamond Light Source; sample concentrated to ~5 mg/ml; Porod volume 150387 Å^3 equivalent to 94 kDa; ab initio envelope compared with a homodimeric homology model

TgSPT1 Δ158 (Toxoplasma gondii serine palmitoyltransferase 1 with an N-terminal deletion of 158 amino acids) (enzyme)
stoichiometry N: 2
